Reference: article PMC10786891, “Massively parallel profiling of RNA-targeting CRISPR-Cas13d”
Changes are numbered by the printed parent chain. In names and notes the source's numbering stands.

T1: EsCas13d, nuclease-dead (Eubacterium siraeum, UniProt B0MS50, R295A;H300A;R849A;H854A)
T1 sequence: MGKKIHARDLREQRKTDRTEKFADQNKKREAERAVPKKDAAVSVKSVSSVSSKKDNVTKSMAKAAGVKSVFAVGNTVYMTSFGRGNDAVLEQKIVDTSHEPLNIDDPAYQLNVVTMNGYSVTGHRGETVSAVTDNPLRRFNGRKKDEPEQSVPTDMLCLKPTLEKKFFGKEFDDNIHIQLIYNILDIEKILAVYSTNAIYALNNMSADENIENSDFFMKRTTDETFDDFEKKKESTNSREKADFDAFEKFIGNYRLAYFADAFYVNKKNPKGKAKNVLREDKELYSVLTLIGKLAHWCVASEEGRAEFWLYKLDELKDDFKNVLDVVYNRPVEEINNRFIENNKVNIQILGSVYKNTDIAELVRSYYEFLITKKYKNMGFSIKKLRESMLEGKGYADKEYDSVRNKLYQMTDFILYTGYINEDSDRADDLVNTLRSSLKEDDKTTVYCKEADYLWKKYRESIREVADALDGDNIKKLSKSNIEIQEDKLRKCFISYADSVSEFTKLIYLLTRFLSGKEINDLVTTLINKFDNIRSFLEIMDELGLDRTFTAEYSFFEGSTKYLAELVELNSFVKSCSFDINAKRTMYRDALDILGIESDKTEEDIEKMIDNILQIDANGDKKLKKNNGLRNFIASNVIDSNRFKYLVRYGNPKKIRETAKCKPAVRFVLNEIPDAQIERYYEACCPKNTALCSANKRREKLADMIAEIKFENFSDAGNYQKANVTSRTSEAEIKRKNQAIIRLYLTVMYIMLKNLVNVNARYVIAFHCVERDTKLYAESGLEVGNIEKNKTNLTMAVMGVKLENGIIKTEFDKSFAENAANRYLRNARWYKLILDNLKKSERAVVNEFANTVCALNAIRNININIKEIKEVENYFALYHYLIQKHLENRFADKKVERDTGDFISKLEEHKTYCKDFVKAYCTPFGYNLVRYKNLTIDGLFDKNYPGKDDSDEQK

B1: target 1 MT 5'PFS GAG 3'PFS CGG (mixed)
RNA 1: CACCCGUGCAAAAAUGCAGGGGUCUAAAACUGAGCGGAUAACCUCUCUAUGG
RNA 2: GGGAAUGGAUCCACAUCUACGAAUUCGAGCCAUAGAGAGGUUAUCCGCUCACGGAGAUCGGAAGAGCACACGU
B2: target 1 MT 5'PFS CAU 3'PFS CUC (mixed)
RNA 1: B1 RNA 1
RNA 2: B1 RNA 2 with G27C, G29U, G53U, G54C
B3: target 1 MT 5'PFS AAA 3'PFS CAC (mixed)
RNA 1: B1 RNA 1
RNA 2: B1 RNA 2 with G27A, G29A, G53A, G54C
B4: target 1 MT 5'PFS GAG 3'PFS CGA (mixed)
RNA 1: B1 RNA 1
RNA 2: B1 RNA 2 with G54A
B5: target 1 del4,del8 (mixed)
RNA 1: B1 RNA 1
RNA 2: GGGAAUGGAUCCACAUCUACGAAUUCGUACCAUAGAGAGGUUACCGUCACCGAGAUCGGAAGAGCACACGU
B6: target 1 MT 5'PFS UUG 3'PFS CUU (mixed)
RNA 1: B1 RNA 1
RNA 2: B1 RNA 2 with G27U, A28U, G53U, G54U
B7: target 1 MT 5'PFS UAG 3'PFS GAG (mixed)
RNA 1: B1 RNA 1
RNA 2: B1 RNA 2 with G27U, C52G, G53A
B8: target 1 G5U,G13C (mixed)
RNA 1: B1 RNA 1
RNA 2: B1 RNA 2 with A28U, G29A, G39C, G47U, G53C
B9: target 1 MT 5'PFS GAC 3'PFS UAA (mixed)
RNA 1: B1 RNA 1
RNA 2: B1 RNA 2 with G29C, C52U, G53A, G54A
B10: target 1 C6U,U19C (mixed)
RNA 1: B1 RNA 1
RNA 2: B1 RNA 2 with A28U, G29A, U33C, C46U, G53C
B11: target 1 MT 5'PFS GCA 3'PFS AGC (mixed)
RNA 1: B1 RNA 1
RNA 2: B1 RNA 2 with A28C, G29A, C52A, G54C
B12: target 1 MT 5'PFS GUU 3'PFS CGU (mixed)
RNA 1: B1 RNA 1
RNA 2: B1 RNA 2 with A28U, G29U, G54U
B13: target 1 MT 5'PFS UUA 3'PFS UAG (mixed)
RNA 1: B1 RNA 1
RNA 2: B1 RNA 2 with G27U, A28U, G29A, C52U, G53A
B14: target 1 MT 5'PFS UUG 3'PFS CUA (mixed)
RNA 1: B1 RNA 1
RNA 2: B1 RNA 2 with G27U, A28U, G53U, G54A
B15: target 1 MT 5'PFS GUU 3'PFS UGU (mixed)
RNA 1: B1 RNA 1
RNA 2: B1 RNA 2 with A28U, G29U, C52U, G54U
B16: target 1 MT 5'PFS GUU 3'PFS UGC (mixed)
RNA 1: B1 RNA 1
RNA 2: B1 RNA 2 with A28U, G29U, C52U, G54C
B17: target 1 insU 3' of 13,insU 3' of 13 (mixed)
RNA 1: B1 RNA 1
RNA 2: GGGAAUGGAUCCACAUCUACGAAUUCGUACCAUAGAGAGUUGUUAUCCGCUCACCGAGAUCGGAAGAGCACACGU
B18: target 1 MT 5'PFS CCG 3'PFS ACA (mixed)
RNA 1: B1 RNA 1
RNA 2: B1 RNA 2 with G27C, A28C, C52A, G53C, G54A
B19: target 1 MT 5'PFS GUU 3'PFS UGA (mixed)
RNA 1: B1 RNA 1
RNA 2: B1 RNA 2 with A28U, G29U, C52U, G54A
B20: target 1 MT 5'PFS GAC 3'PFS UAG (mixed)
RNA 1: B1 RNA 1
RNA 2: B1 RNA 2 with G29C, C52U, G53A
B21: target 1 MT 5'PFS AAC 3'PFS AAG (mixed)
RNA 1: B1 RNA 1
RNA 2: B1 RNA 2 with G27A, G29C, C52A, G53A
B22: target 1 MT 5'PFS UCG 3'PFS AUC (mixed)
RNA 1: B1 RNA 1
RNA 2: B1 RNA 2 with G27U, A28C, C52A, G53U, G54C
B23: target 1 insG 3' of 20,insA 3' of 10 (mixed)
RNA 1: B1 RNA 1
RNA 2: GGGAAUGGAUCCACAUCUACGAAUUCGUACCAGUAGAGAGGUUAAUCCGCUCACCGAGAUCGGAAGAGCACACGU
B24: target 1 MT 5'PFS GAC 3'PFS UAC (mixed)
RNA 1: B1 RNA 1
RNA 2: B1 RNA 2 with G29C, C52U, G53A, G54C
B25: target 1 MT 5'PFS GGA 3'PFS GAG (mixed)
RNA 1: B1 RNA 1
RNA 2: B1 RNA 2 with A28G, G29A, C52G, G53A
B26: target 1 MT 5'PFS ACC 3'PFS UAG (mixed)
RNA 1: B1 RNA 1
RNA 2: B1 RNA 2 with G27A, A28C, G29C, C52U, G53A
B27: target 1 MT 5'PFS AAC 3'PFS AAC (mixed)
RNA 1: B1 RNA 1
RNA 2: B1 RNA 2 with G27A, G29C, C52A, G53A, G54C
B28: target 1 MT 5'PFS UUG 3'PFS CUG (mixed)
RNA 1: B1 RNA 1
RNA 2: B1 RNA 2 with G27U, A28U, G53U
B29: target 1 MT 5'PFS CCA 3'PFS CGG (mixed)
RNA 1: B1 RNA 1
RNA 2: B1 RNA 2 with G27C, A28C, G29A
B30: target 1 MT 5'PFS UCG 3'PFS AUU (mixed)
RNA 1: B1 RNA 1
RNA 2: B1 RNA 2 with G27U, A28C, C52A, G53U, G54U
B31: target 1 MT 5'PFS ACC 3'PFS UAC (mixed)
RNA 1: B1 RNA 1
RNA 2: B1 RNA 2 with G27A, A28C, G29C, C52U, G53A, G54C
B32: target 1 MT 5'PFS GGC 3'PFS CCG (mixed)
RNA 1: B1 RNA 1
RNA 2: B1 RNA 2 with A28G, G29C, G53C
B33: target 1 MT 5'PFS GUU 3'PFS CGG (mixed)
RNA 1: B1 RNA 1
RNA 2: B1 RNA 2 with A28U, G29U
B34: target 1 MT 5'PFS GUU 3'PFS CGA (mixed)
RNA 1: B1 RNA 1
RNA 2: B1 RNA 2 with A28U, G29U, G54A
B35: target 1 MT 5'PFS AAC 3'PFS CCG (mixed)
RNA 1: B1 RNA 1
RNA 2: B1 RNA 2 with G27A, G29C, G53C
B36: target 1 MT 5'PFS GUU 3'PFS CGC (mixed)
RNA 1: B1 RNA 1
RNA 2: B1 RNA 2 with A28U, G29U, G54C
B37: target 1 MT 5'PFS GGC 3'PFS CCA (mixed)
RNA 1: B1 RNA 1
RNA 2: B1 RNA 2 with A28G, G29C, G53C, G54A
B38: target 1 MT 5'PFS CAU 3'PFS CUA (mixed)
RNA 1: B1 RNA 1
RNA 2: B1 RNA 2 with G27C, G29U, G53U, G54A
B39: target 1 MT 5'PFS AGG 3'PFS CAG (mixed)
RNA 1: B1 RNA 1
RNA 2: B1 RNA 2 with G27A, A28G, G53A

Target: T1, EsCas13d, nuclease-dead
Assay: crRNA (strand 1, pre-loaded); Mg2+; 40 mM Tris-HCl pH 7.5, 150 mM NaCl, 6 mM MgCl2, 1 mM DTT, 0.1% Tween-20, 0.2 mg/ml BSA; 25 C; 10 min per concentration, then washed
Conditions: tags: His6-TwinStrep-SUMO cleaved; N-terminal SNAP kept (SNAP-Surface 488); label: 3' end held by stalled T7 RNA polymerase

Question: B1 was tested. Which Kd did it give?
Answer: ~100 nM

Question: With B2 as the binder, how does the Kd read?
Answer: ~90 nM

Question: B3 was tested. Which Kd did it give?
Answer: 29.5 ± 11.5 nM

Question: Which Kd does the source give for B4 here?
Answer: ~49 nM

Question: Which Kd does the source give for B5 here?
Answer: 12.1 ± 1 nM

Question: B6 was tested. Which Kd did it give?
Answer: 14.4 ± 3.55 nM

Question: Which Kd does the source give for B7 here?
Answer: 91 ± 37 nM

Question: For B8, which Kd is on record?
Answer: 39 ± 6 nM

Question: How did the Kd turn out when B9 was run?
Answer: 17.5 ± 4.5 nM

Question: How did the Kd turn out when B10 was run?
Answer: 29.7 ± 2 nM

Question: With B11 as the binder, how does the Kd read?
Answer: 28.5 ± 14 nM

Question: Which Kd does the source give for B12 here?
Answer: 12.3 ± 1.8 nM

Question: For B13, which Kd is on record?
Answer: 27.5 ± 6 nM

Question: B14 was tested. Which Kd did it give?
Answer: 45.5 ± 18 nM

Question: B15 was tested. Which Kd did it give?
Answer: 34.5 ± 6.5 nM

Question: With B16 as the binder, how does the Kd read?
Answer: 15.5 ± 2.7 nM

Question: B17 was tested. Which Kd did it give?
Answer: 6.5 ± 0.6 nM

Question: For B18, which Kd is on record?
Answer: 38.5 ± 13 nM

Question: B19 was tested. Which Kd did it give?
Answer: 16.8 ± 2.5 nM

Question: For B20, which Kd is on record?
Answer: 27.5 ± 11 nM

Question: B21 was tested. Which Kd did it give?
Answer: 34.5 ± 15 nM

Question: How did the Kd turn out when B22 was run?
Answer: 42 ± 13 nM

Question: How did the Kd turn out when B23 was run?
Answer: 42 ± 8 nM

Question: How did the Kd turn out when B24 was run?
Answer: 19 ± 8 nM

Question: How did the Kd turn out when B25 was run?
Answer: 19 ± 6 nM

Question: For B26, which Kd is on record?
Answer: ~14.5 nM

Question: B27 was tested. Which Kd did it give?
Answer: 84.5 ± 41.5 nM

Question: How did the Kd turn out when B28 was run?
Answer: 23.5 ± 5.75 nM

Question: How did the Kd turn out when B29 was run?
Answer: 5.05 ± 1.35 nM

Question: B30 was tested. Which Kd did it give?
Answer: 32.5 ± 10.5 nM

Question: With B31 as the binder, how does the Kd read?
Answer: 31 ± 14.5 nM

Question: How did the Kd turn out when B32 was run?
Answer: 8.35 ± 1.4 nM

Question: B33 was tested. Which Kd did it give?
Answer: 67 ± 9 nM

Question: How did the Kd turn out when B34 was run?
Answer: 19.7 ± 4.2 nM

Question: Which Kd does the source give for B35 here?
Answer: 19.5 ± 4.45 nM

Question: How did the Kd turn out when B36 was run?
Answer: 19.8 ± 4.5 nM

Question: B37 was tested. Which Kd did it give?
Answer: 31.5 ± 10.5 nM

Question: Which Kd does the source give for B38 here?
Answer: ~110 nM

Question: For B39, which Kd is on record?
Answer: ~41 nM
